Results from patent publication US20250215412A1 (NOVOZYMES A S, published 2025).

T1: Chryseobacterium sp-62563 deamidase polypeptide (second polypeptide, deamidase domain), wildtype (Chryseobacterium sp-62563)
T1 sequence: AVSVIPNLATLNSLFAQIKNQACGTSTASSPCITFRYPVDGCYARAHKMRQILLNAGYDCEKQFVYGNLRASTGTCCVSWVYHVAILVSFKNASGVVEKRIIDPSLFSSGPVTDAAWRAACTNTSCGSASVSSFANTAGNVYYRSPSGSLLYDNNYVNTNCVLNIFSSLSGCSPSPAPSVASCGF


Target: T1, Chryseobacterium sp-62563 deamidase polypeptide (second polypeptide, deamidase domain), wildtype (Chryseobacterium sp-62563)
Test: cell-based or functional assay

| Binder | Relative activity of maturated deamidase (% initial rate) | NanoDSF thermal unfolding temperature [° C.] |
| --- | --- | --- |
| Chryseobacterium sp-62563 propeptide K96F (protein) NQDPNLVAKESNETAMKDFGKTVPVGIEKEDGKFKISFMVTAQPYEIKDSKENAAYISMIKTAVENETPIHVFLKANTNEIAKVDKATDDDIRYFFSVFTKEVKEENRK | 95 |  |
| Chryseobacterium sp-62563 propeptide K96H (protein) NQDPNLVAKESNETAMKDFGKTVPVGIEKEDGKFKISFMVTAQPYEIKDSKENAAYISMIKTAVENETPIHVFLKANTNEIAKVDKATDDDIRYFHSVFTKEVKEENRK | 30 |  |
| Chryseobacterium sp-62563 propeptide F95I (protein) NQDPNLVAKESNETAMKDFGKTVPVGIEKEDGKFKISFMVTAQPYEIKDSKENAAYISMIKTAVENETPIHVFLKANTNEIAKVDKATDDDIRYIKSVFTKEVKEENRK | 58 |  |
| Chryseobacterium sp-62563 propeptide F95H (protein) NQDPNLVAKESNETAMKDFGKTVPVGIEKEDGKFKISFMVTAQPYEIKDSKENAAYISMIKTAVENETPIHVFLKANTNEIAKVDKATDDDIRYHKSVFTKEVKEENRK | 76 |  |
| Chryseobacterium sp-62563 propeptide F95N (protein) NQDPNLVAKESNETAMKDFGKTVPVGIEKEDGKFKISFMVTAQPYEIKDSKENAAYISMIKTAVENETPIHVFLKANTNEIAKVDKATDDDIRYNKSVFTKEVKEENRK | 85 |  |
| Chryseobacterium sp-62563 propeptide K96L (protein) NQDPNLVAKESNETAMKDFGKTVPVGIEKEDGKFKISFMVTAQPYEIKDSKENAAYISMIKTAVENETPIHVFLKANTNEIAKVDKATDDDIRYFLSVFTKEVKEENRK | 50 |  |
| Chryseobacterium sp-62563 propeptide F95K (protein) NQDPNLVAKESNETAMKDFGKTVPVGIEKEDGKFKISFMVTAQPYEIKDSKENAAYISMIKTAVENETPIHVFLKANTNEIAKVDKATDDDIRYKKSVFTKEVKEENRK | > 100 |  |
| Chryseobacterium sp-62563 propeptide F95T (protein) NQDPNLVAKESNETAMKDFGKTVPVGIEKEDGKFKISFMVTAQPYEIKDSKENAAYISMIKTAVENETPIHVFLKANTNEIAKVDKATDDDIRYTKSVFTKEVKEENRK | 93 |  |
| Chryseobacterium sp-62563 propeptide F95R (protein) NQDPNLVAKESNETAMKDFGKTVPVGIEKEDGKFKISFMVTAQPYEIKDSKENAAYISMIKTAVENETPIHVFLKANTNEIAKVDKATDDDIRYRKSVFTKEVKEENRK | > 100 |  |
| Chryseobacterium sp-62563 propeptide F95S (protein) NQDPNLVAKESNETAMKDFGKTVPVGIEKEDGKFKISFMVTAQPYEIKDSKENAAYISMIKTAVENETPIHVFLKANTNEIAKVDKATDDDIRYSKSVFTKEVKEENRK | > 100 |  |
| Chryseobacterium sp-62563 propeptide K96E (protein) NQDPNLVAKESNETAMKDFGKTVPVGIEKEDGKFKISFMVTAQPYEIKDSKENAAYISMIKTAVENETPIHVFLKANTNEIAKVDKATDDDIRYFESVFTKEVKEENRK | > 100 |  |
| Chryseobacterium sp-62563 propeptide K96M (protein) NQDPNLVAKESNETAMKDFGKTVPVGIEKEDGKFKISFMVTAQPYEIKDSKENAAYISMIKTAVENETPIHVFLKANTNEIAKVDKATDDDIRYFMSVFTKEVKEENRK | 45 |  |
| Chryseobacterium sp-62563 propeptide K96N (protein) NQDPNLVAKESNETAMKDFGKTVPVGIEKEDGKFKISFMVTAQPYEIKDSKENAAYISMIKTAVENETPIHVFLKANTNEIAKVDKATDDDIRYFNSVFTKEVKEENRK | 55 |  |
| Chryseobacterium sp-62563 propeptide K96I (protein) NQDPNLVAKESNETAMKDFGKTVPVGIEKEDGKFKISFMVTAQPYEIKDSKENAAYISMIKTAVENETPIHVFLKANTNEIAKVDKATDDDIRYFISVFTKEVKEENRK | 71 |  |
| Chryseobacterium sp-62563 propeptide F95Y (protein) NQDPNLVAKESNETAMKDFGKTVPVGIEKEDGKFKISFMVTAQPYEIKDSKENAAYISMIKTAVENETPIHVFLKANTNEIAKVDKATDDDIRYYKSVFTKEVKEENRK | 27 |  |
| Chryseobacterium sp-62563 propeptide F95V (protein) NQDPNLVAKESNETAMKDFGKTVPVGIEKEDGKFKISFMVTAQPYEIKDSKENAAYISMIKTAVENETPIHVFLKANTNEIAKVDKATDDDIRYVKSVFTKEVKEENRK | 66 |  |
| Chryseobacterium sp-62563 propeptide F95M (protein) NQDPNLVAKESNETAMKDFGKTVPVGIEKEDGKFKISFMVTAQPYEIKDSKENAAYISMIKTAVENETPIHVFLKANTNEIAKVDKATDDDIRYMKSVFTKEVKEENRK | 51 |  |
| Chryseobacterium sp-62563 propeptide F95L (protein) NQDPNLVAKESNETAMKDFGKTVPVGIEKEDGKFKISFMVTAQPYEIKDSKENAAYISMIKTAVENETPIHVFLKANTNEIAKVDKATDDDIRYLKSVFTKEVKEENRK | 61 |  |
| Chryseobacterium sp-62563 propeptide F95A (protein) NQDPNLVAKESNETAMKDFGKTVPVGIEKEDGKFKISFMVTAQPYEIKDSKENAAYISMIKTAVENETPIHVFLKANTNEIAKVDKATDDDIRYAKSVFTKEVKEENRK | > 100 |  |
| Chryseobacterium sp-62563 propeptide F95W (protein) NQDPNLVAKESNETAMKDFGKTVPVGIEKEDGKFKISFMVTAQPYEIKDSKENAAYISMIKTAVENETPIHVFLKANTNEIAKVDKATDDDIRYWKSVFTKEVKEENRK | 58 |  |
| Chryseobacterium sp-62563 propeptide K96Q (protein) NQDPNLVAKESNETAMKDFGKTVPVGIEKEDGKFKISFMVTAQPYEIKDSKENAAYISMIKTAVENETPIHVFLKANTNEIAKVDKATDDDIRYFQSVFTKEVKEENRK | > 100 |  |
| Chryseobacterium sp-62563 propeptide K96C (protein) NQDPNLVAKESNETAMKDFGKTVPVGIEKEDGKFKISFMVTAQPYEIKDSKENAAYISMIKTAVENETPIHVFLKANTNEIAKVDKATDDDIRYFCSVFTKEVKEENRK | 95 |  |

Other lines, results leading:

| Relative activity of maturated deamidase (% initial rate) | NanoDSF thermal unfolding temperature [° C.] | Binder |
| --- | --- | --- |
| > 100 |  | Chryseobacterium sp-62563 propeptide V98E (protein) NQDPNLVAKESNETAMKDFGKTVPVGIEKEDGKFKISFMVTAQPYEIKDSKENAAYISMIKTAVENETPIHVFLKANTNEIAKVDKATDDDIRYFKSEFTKEVKEENRK |
| 34 |  | Chryseobacterium sp-62563 propeptide K96T (protein) NQDPNLVAKESNETAMKDFGKTVPVGIEKEDGKFKISFMVTAQPYEIKDSKENAAYISMIKTAVENETPIHVFLKANTNEIAKVDKATDDDIRYFTSVFTKEVKEENRK |
| 51 |  | Chryseobacterium sp-62563 propeptide K96W (protein) NQDPNLVAKESNETAMKDFGKTVPVGIEKEDGKFKISFMVTAQPYEIKDSKENAAYISMIKTAVENETPIHVFLKANTNEIAKVDKATDDDIRYFWSVFTKEVKEENRK |
| 68 |  | Chryseobacterium sp-62563 propeptide V98A (protein) NQDPNLVAKESNETAMKDFGKTVPVGIEKEDGKFKISFMVTAQPYEIKDSKENAAYISMIKTAVENETPIHVFLKANTNEIAKVDKATDDDIRYFKSAFTKEVKEENRK |
| > 100 | 74.1 | Chryseobacterium sp-62563 propeptide P69Q (protein) NQDPNLVAKESNETAMKDFGKTVPVGIEKEDGKFKISFMVTAQPYEIKDSKENAAYISMIKTAVENETQIHVFLKANTNEIAKVDKATDDDIRYFKSVFTKEVKEENRK |
| 33 | 78.5 | Chryseobacterium sp-62563 propeptide P69T (protein) NQDPNLVAKESNETAMKDFGKTVPVGIEKEDGKFKISFMVTAQPYEIKDSKENAAYISMIKTAVENETTIHVFLKANTNEIAKVDKATDDDIRYFKSVFTKEVKEENRK |
| 73 |  | Chryseobacterium sp-62563 propeptide K96Y (protein) NQDPNLVAKESNETAMKDFGKTVPVGIEKEDGKFKISFMVTAQPYEIKDSKENAAYISMIKTAVENETPIHVFLKANTNEIAKVDKATDDDIRYFYSVFTKEVKEENRK |
|  | 77.7 | Chryseobacterium sp-62563 propeptide P69S (protein) NQDPNLVAKESNETAMKDFGKTVPVGIEKEDGKFKISFMVTAQPYEIKDSKENAAYISMIKTAVENETSIHVFLKANTNEIAKVDKATDDDIRYFKSVFTKEVKEENRK |
| 65 |  | Chryseobacterium sp-62563 propeptide V98C (protein) NQDPNLVAKESNETAMKDFGKTVPVGIEKEDGKFKISFMVTAQPYEIKDSKENAAYISMIKTAVENETPIHVFLKANTNEIAKVDKATDDDIRYFKSCFTKEVKEENRK |
| 30 |  | Chryseobacterium sp-62563 propeptide S97R (protein) NQDPNLVAKESNETAMKDFGKTVPVGIEKEDGKFKISFMVTAQPYEIKDSKENAAYISMIKTAVENETPIHVFLKANTNEIAKVDKATDDDIRYFKRVFTKEVKEENRK |
| 41 |  | Chryseobacterium sp-62563 propeptide K96V (protein) NQDPNLVAKESNETAMKDFGKTVPVGIEKEDGKFKISFMVTAQPYEIKDSKENAAYISMIKTAVENETPIHVFLKANTNEIAKVDKATDDDIRYFVSVFTKEVKEENRK |
